Patent US20110206633A1, “POLYMER CONJUGATES OF CD-NP PEPTIDES” (priority 2008, published 2011)
Entries after “also recorded” stand apart in the source; their conditions may differ.

Assays:
[1] = Pharmacokinetic study, single IV dose in rats, plasma concentrations, noncompartmental analysis; details: for AUCINF / CL / Cmax / MRTlast / T½ / Vss: non-released PEG-BNP (or native BNP), equivalent protein mass 0.459 mg/kg IV, Sprague Dawley rats
Protocol: (§1) Thirty one (31) adult male Sprague-Dawley rats with indwelling jugular vein and carotid artery catheters (JVC/CAC) (Charles River Labs, Hollister, Calif.) were utilized for this study. […] All animals were food fasted overnight. Prior to dosing, the rats were weighed, the tails and cage cards were labeled for identification and the doses were calculated. Anesthesia was induced and maintained with 3.0-5.0% isoflurane. The JVC and CAC were externalized and flushed with HEP/saline (10 IU/mL HEP/mL saline). The predose sample was collected from the JVC and the catheters were plugged, and labeled to identify the jugular vein and carotid artery. When all of the animals had recovered from anesthesia and the predose samples were processed, the animals were dosed, intravenously (IV) via the JVC using a 1 mL syringe containing the appropriate test article and the dead volume of the catheter was flushed with 0.9% saline to ensure the animals received the correct dose.
(§2) Following a single IV dose, blood samples were collected from groups 1A, 2A, 3A and 4A, at 0 (pre-dose collected as described above), 0.03, 0.33, 2.0, 6.0, 12.0 and 72.0 hours and from Groups 1B, 2B, 3B and 4B at 0 (pre-dose collected as described above), 0.17, 1.0, 4.0, 8.0, 24.0 and 48.0 hours via the carotid artery catheter and processed as stated in the protocol. Following the last collection point, the animals were euthanized.
(§3) Concentrations in plasma that were below LLOQ were replaced with zeros prior to generating Tables and PK analysis. In the event that more than half (>50%) of the data points were below zero, mean concentration will not be shown in the figures or used in PK parameters estimation. The following PK parameters were estimated using plasma concentration-time profile of each animal:
(§4) C0 Extrapolated concentration to time “zero” Cmax Maximum (peak) concentration AUCall Area under the concentration-time from zero to time of last concentration value T1/2(Z) Terminal elimination half-life AUCinf Area under the concentration-time from zero to time infinity Tmax Time to reach maximum or peak concentration following administration CL Total body clearance Vz Volume of distribution based on terminal phase Vss Volume of distribution at steady state MRTlast Mean residence time to last observable concentration

[2] = rat, in vivo, iv
Protocol: as §1, §2, §3, §4

For `CC[C@H](C)[C@@H]1NC(=O)[C@H](CCCNC(=N)N)NC(=O)[C@H](CC(=O)O)NC(=O)[C@H](CCSC)NC(=O)[C@H](CCCCN)NC(=O)[C@H](CCCNC(=N)N)NC(=O)CNC(=O)[C@H](Cc2ccccc2)NC(=O)[C@@H](NC(=O)CNC(=O)[C@H](CO)NC(=O)CNC(=O)[C@H](CCC(N)=O)NC(=O)[C@@H](NC(=O)[C@H](CCSC)NC(=O)[C@H](CCCCN)NC(=O)[C@@H]2CCCN2C(=O)[C@@H](N)CO)C(C)C)CSSC[C@@H](C(=O)N[C@@H](CCCCN)C(=O)N[C@H](C(=O)N[C@@H](CC(C)C)C(=O)N[C@@H](CCCN=C(N)N)C(=O)N[C@@H](CCCN=C(N)N)C(=O)N[C@@H](Cc2cnc[nH]2)C(=O)O)C(C)C)NC(=O)CNC(=O)[C@H](CC(C)C)NC(=O)CNC(=O)[C@H](CO)NC(=O)[C@H](CO)NC(=O)[C@H](CO)NC(=O)[C@H](CO)NC1=O` [BNP, nesiritide, reference compound], the “measurable BNP in plasma after BNP administration” value ([1]; IV, rats, in words) was “No measurable plasma concentrations; also recorded: No BNP was measurable in plasma”.

“ButyrALD-10K-BNP: non-releasable mPEG-Butyr-ALD-10K mono-PEG conjugate of BNP-32, N-terminus directed” showed an AUCINF [1] of 96.6 ng·h/mL, a CL [1] of 79.17 mL/min/kg and a Cmax [1] of 355 ng/mL. The MRTlast [1] was 0.368 h, the T½ [1] was 0.272 h and the Vss [1] was 2.27 L/kg.

In the case of “ButyrALD-40K-BNP: non-releasable 40 kDa mPEG2-Butyr-ALD mono-PEG conjugate of BNP-32, N-terminus directed”, the “peak plasma concentration compared with ButyrALD-10K-BNP” value [2] is reported as “higher peak plasma concentration”, the “clearance compared with ButyrALD-10K-BNP” value ([1]; IV, rats, in words) is reported as “lower clearance” and the “half-life compared with ButyrALD-10K-BNP” value ([1]; IV, rats, in words) is reported as “longer half-life”. The AUCINF [1] was 41300 ng·h/mL, the CL [1] was 0.185 mL/min/kg and the Cmax [1] was 1410 ng/mL. The MRTlast [1] was 24.0 h, the T½ [1] was 26.1 h and the Vss [1] was 0.631 L/kg.

In the case of “C2-FMOC-PEG2-40K-BNP: releasable mono-PEG conjugate of BNP-32 with mPEG2-C2-fmoc-NHS-40K; hydrolysis generates unmodified peptide”, the “peak concentration of conjugate in plasma” value ([2]; male, Sprague-Dawley) is reported as 1300 ng/mL, the “time of peak concentration of released BNP” value [2] is reported as 0.3 h and the “time plasma conjugate concentrations remained above 100 ng/mL” value [2] is reported as “up to 24 h”. For the same compound, the “time released BNP stayed above 20 ng/mL” value [2] was 8 h and the “half-life of conjugate in plasma” value ([1]; intact C2-FMOC-PEG2-40K-BNP, IV bolus, rats) was 15.0 h.
